Measured values published in article PMC4663276.

How the values were obtained:
[1] = target: TirM-TarP FL (full-length C. caviae GPIC TarP fused to TirM) (Chlamydia caviae strain GPIC)
[2] = target: TirM-ΔVBS1 (TarP VBD deleted for VBS1, Thr714-Arg832, fused to TirM) (Chlamydia caviae strain GPIC)

Substance: vinculin (natural protein)
- frequency of vinculin recruitment to Δtir EPEC-clustered TirM fusion at the plasma membrane of Cos7 cells (immunofluorescence), TarP-FL relative to TirM-TarP1-714 [1]: 3 fold
- frequency of vinculin recruitment to Δtir EPEC-clustered TirM fusion at the plasma membrane of Cos7 cells (immunofluorescence), decrease relative to WT VBD [2]: 1.6 fold
